# Results as given in US20100322941A1 (published 2010).
# T1: recombinant human IP-10 (human, UniProt P02778 22-98)
# T1 construct: mature; also called hIP-10; rhIP-10
# T1 sequence (looked up): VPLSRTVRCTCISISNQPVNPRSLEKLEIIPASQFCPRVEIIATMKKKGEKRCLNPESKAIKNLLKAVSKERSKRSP
# B1: CC21R3P5_C5 (scFv format) (scFv, part only; not given: linker and tags, part only)
# scFv, part: QVQLVQSGGGVVQPGRSLRLSCAASGFTFSTYGMHWVRQAPGKGLEWVAVISYDGGTKYYADSVKGRFTISRDNSMKTLYLQMNSLRTEDTAVYYCAKDLGDLPPGLDYWGRGTMVTVSSCHEMICALLYSYNTHESIZEDSYELTQPPSVSVALGQTATITCGGSSIESKSVHWYQEKPGQAPVLVIYKDSNRPSVIPERFSGSNSGNTATLTIGRAQAGDEADYYCQVWDSSTGVVFGGGTKLTVL
# B2: CC21R3P1_F1 (scFv format) (scFv, part only; not given: linker, domain order, vector tags, V domains shown, not shown: another chain or arm of the molecule; small tags and cut ends)
# VH: QVQLVESGGGVVQPGRSHTLSCAASGFAFKNSGIHWVRQAPGKGLEWVAVISYDGSNKFYADSVKGRFTISRDNSQNTVYLQMTDLRPDDTAVYYCARDGSESEYLDYWGKGTLVTVSS
# VL: NFMLTQPHSVSESPGKTVTISCTGSGGSIDRNYVQWYQQRPGSAPITVIYEDNQRPSGVPDRFSGSIDSSSNSASLTISGLRTDDEADYYCQSYDSINLWVFGGGTKVTVL
# B3: CC21R3P1_F1 (IgG1 format) (antibody, V domains shown)
# VH: B2 VH
# VL: B2 VL
# B4: CF1A11R3P3_F3 (scFv format) (scFv, part only; not given: linker, domain order, vector tags, V domains shown, not shown: another chain or arm of the molecule; small tags and cut ends)
# VH: QVQLVESGGGVVQPGRSLRLSCAASGFTFSNSGIHWVRQAPGKGLEWVAVISYDGSNKFYADSVKGRFTISRDNSKNTLYLQMNSLRAEDTAVYYCAKLRDNGEYLDYWGQGTLVTVSS
# VL: B2 VL
# Columns and labels:
# recombinant human IP-10 [1] = target: T1, recombinant human IP-10; assay: cell-based or functional assay
# recombinant human IP-10 [2] = target: T1, recombinant human IP-10; assay: SPR (Biacore 2000); the text's value differs from Table 8 (9.2 × 10^-9 M)
# Experimental: 200RU (response unit) of a goat anti-human polyclonal IgG (ahIgG; Biacore AB, Uppsala, Sweden) were immobilized by EDC/NHS chemistry on a C1 Biacore chip. […] The surface was regenerated after each cycle by injection of 10 mM glycine pH=1.5 at 30 μL/min, for 30 s followed by 1 min. of stabilization time in HBS-EP buffer.
# Binding was measured by passing either hIP-10 (Peprotech, Rocky Hill N.J.) or a NusA-hIP-10 fusion protein at the following concentrations: 34.7 nM, 11.6 nM, 3.85 nM, 1.28 nM, 0.428 nM, 0.142 nM and OnM. All solutions were diluted in HBS-EP buffer (Biacore AB, Uppsala, Sweden). Injection was performed at 50 μl/min for 3 min. followed by 12 min. of dissociation time and the temperature was set at 25° C. […] Very similar values were obtained using rhIP-10 or the NusA-hIP-10 fusion, but better response signals were obtained with the fusion protein due to its larger size that induces a better response on the Biacore.
Binder,"Calcium flux IC50 (nM); hCXCR3-expressing L1.2 cells, 10 nM hIP-10 (recombinant human IP-10 [1]) [nM]","Chemotaxis IC50 (nM); hCXCR3-expressing L1.2 cells, 1 nM hIP-10 (recombinant human IP-10 [1]) [nM]","Chemotaxis IC50 (nM); hCXCR3-expressing L1.2 cells, 2 nM hIP-10 (recombinant human IP-10 [1]) [nM]",Kd (recombinant human IP-10 [2]) [nM]
B1,89,90,,
B2,36,,18,
B3,,,,90.2
B4,14,1.8,,
